B1: Azoarcus group I ribozyme (parent)
chain: GUGCCUUGCGCCGGGAAACCACGCAAGGGAUGGUGUCAAAUUCGGCGAAACCUAAGCGCCCGCCCGGGCGUAUGGCAACGCCGAGCCAAGCUUCGGCGCCUGCGCCGAUGAAGGUGUAGAGACUAGACGGCACCCACCUAAGGCAAACGCUAUGGUGAAGGCAUAGUCCAGGGAGUGGCGAAAGUCACACAAACCGG

Variants of: B1
Assay: reverse-splicing fitness (ratio to wild type); higher = more active; in vitro selection; Mg2+ level not given
How it was run: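 An in vitro group I ribozyme library with randomized positions was T7-transcribed and gel-purified. In triplicate, 10 pmol RNA in EPPS pH 7.5 was reacted with 50 pmoles of a 30-nt RNA substrate for 1 h at 37 °C across several added MgCl2 levels (1–48 mM), then stopped with EDTA. Products were reverse transcribed from a substrate-complementary primer, PCR-amplified and sequenced (HiSeq 4000). Fitness is a variant's read proportion after selection over that before, normalised to wild type.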

Variant | reverse-splicing fitness
C82G A111U A145U U176C | 0.246
C82G A111U A145U U176A | 0.211
C82G A111U A145U U176G | 0.0842
C82G A111U A145U C169U U176A | 0.0146
C82G A111U A145U C169U U176C | 0.0128
C82G A111U A145U C169U U176G | 0.00509
C82G A111U A145G C150U C169G U176G | 0.0058
C82G A111U A145G C150U C169G U176C | 0.0191
C82G A111U A145G C150U C169G U176A | 0.0141
C82G A111U A145U C169A U176A | 0.0121
C82G A111U A145U C169A U176C | 0.011
C82G A111U A145U C169A U176G | 0.00626
C82G A111U A145G C150G U176A | 0.0137
C82G A111U A145G C150G U176C | 0.0285
C82G A111U A145G C150G U176G | 0.00893
C82G A111U A120U C150G C169U U176G | 0.00257
C82G A111U A120U C150G C169U U176C | 0.00541
C82G A111U A120U C150G C169U U176A | 0.00329
C82G A111U C150A U176G | 0.0138
C82G A111U C150A U176C | 0.0357
C82G A111U C150A U176A | 0.025

Variant | reverse-splicing fitness
C82G A111U A120U C169G U176C | 0.00385
C82G A111U A120U C169G U176A | 0.00374
C82G A111U A120U C169G U176G | 0.00175
C82G A111U A120U A145U C150G U176G | 0.00246
C82G A111U A120U A145U C150G U176C | 0.006
C82G A111U A120U A145U C150G U176A | 0.00373
C82G A111U A120U A145U C169A U176C | 0.00203
C82G A111U A120U A145U C169A U176A | 0.00292
C82G A111U A120U A145U C169A U176G | 0.00176
C82G A111U A120U A145U C150U C169G | 0.00327
C82G A111U A120U A145U C150U C169U | 0.00381
C82G A111U A120U A145U C150U C169A | 0.00323
C82G A111U C150G C169A U176C | 0.0132
C82G A111U C150G C169A U176G | 0.00732
C82G A111U C150G C169A U176A | 0.011
C82G A111U A145U C150G U176G | 0.0057
C82G A111U A145U C150G U176C | 0.0254
C82G A111U A145U C150G U176A | 0.0141
C82G A111U A145U C150G C169U | 0.00956
C82G A111U A145U C150G C169A | 0.00951
C82G A111U A145U C150G C169G | 0.00766

Variant | reverse-splicing fitness
C82G A111U A145C C150U C169A U176C | 0.00701
C82G A111U A145C C150U C169A U176A | 0.0133
C82G A111U A145C C150U C169A U176G | 0.00702
C82G A111U A145G C150U C169A U176A | 0.0163
C82G A111U A145G C150U C169A U176C | 0.0164
C82G A111U A145G C150U C169A U176G | 0.00701
C82G A111U A120U A145U U176A | 0.0108
C82G A111U A120U A145U U176C | 0.0192
C82G A111U A120U A145U U176G | 0.00425
C82G A111U A145G U176G | 0.061
C82G A111U A145G U176C | 0.244
C82G A111U A145G U176A | 0.197
C82G A111U A120U A145U C150U U176C | 0.0131
C82G A111U A120U A145U C150U U176A | 0.00894
C82G A111U A120U A145U C150U U176G | 0.00302
C82G A111U A120U A145U C169U U176G | 0.00177
C82G A111U A120U A145U C169U U176C | 0.00275
C82G A111U A120U A145U C169U U176A | 0.00233
C82G A111U A120U C150U C169U | 0.00485
C82G A111U A120U C150U C169A | 0.0056
C82G A111U A120U C150U C169G | 0.00565

Variant | reverse-splicing fitness
C82G A111U A120U A145U C169G U176A | 0.00265
C82G A111U A120U A145U C169G U176G | 0.00186
C82G A111U A120U A145U C169G U176C | 0.0026
C82G A111U A145U C150U C169G | 0.00884
C82G A111U A145U C150U C169A | 0.00988
C82G A111U A145U C150U C169U | 0.0113
C82G A111U A120U C150G C169G U176C | 0.00362
C82G A111U A120U C150G C169G U176A | 0.00513
C82G A111U A120U C150G C169G U176G | 0.003
C82G A111U A145G C150U C169U | 0.0119
C82G A111U A145G C150U C169G | 0.00982
C82G A111U A145G C150U C169A | 0.0114
C82G A111U A145U C150G C169G U176G | 0.00649
C82G A111U A145U C150G C169G U176A | 0.0083
C82G A111U A145U C150G C169G U176C | 0.00646
C82G A111U A120U C150U C169G U176G | 0.00236
C82G A111U A120U C150U C169G U176A | 0.00881
C82G A111U A120U C150U C169G U176C | 0.00433
C82G A111U A145C C150A C169U U176C | 0.00987
C82G A111U A145C C150A C169U U176G | 0.00599
C82G A111U A145C C150A C169U U176A | 0.0163

— the RNAGym collection of RNA variant scans (doi:10.1093/molbev/msab373)
